Values of other authors, collected in PMC2904412.

Target: thrombomodulin (Homo sapiens) (UniProt P07204)

## thrombin (from UniProt P00734)
  Kd: < 1 nM
